Holding throughout (test): crystal structure
Assay [1] concerns the target mVSG397 N-terminal domain (T. brucei brucei, strain Lister 427).
In assay [2] the target is mVSG531 N-terminal domain (T. brucei brucei, strain Lister 427).
Assay [3] concerns the target mVSG1954 N-terminal domain (T. brucei brucei, strain Lister 427).

What is called stoichiometry N is a count of units in the complex or per binding partner. In turn, “mVSG397 N-terminal domain (domain or fragment)” showed a stoichiometry N in assay [1] of 2.

As to “mVSG531 N-terminal domain (domain or fragment)”, in assay [2], the stoichiometry N came out at 2.

“mVSG1954 N-terminal domain (domain or fragment)”: the stoichiometry N in assay [3] turned out to be 3.
